Data as given in patent publication US20180208661A1 (CSL, published 2018).
Residue numbers refer to the chain shown, from its start.

What was measured:
Assay in all cases: affinity for IL-3Rα extracellular domain protein; method not stated
[1] = target: T1, human IL-3Rα extracellular domain S59A (human, UniProt P26951 19-305)
T1 sequence: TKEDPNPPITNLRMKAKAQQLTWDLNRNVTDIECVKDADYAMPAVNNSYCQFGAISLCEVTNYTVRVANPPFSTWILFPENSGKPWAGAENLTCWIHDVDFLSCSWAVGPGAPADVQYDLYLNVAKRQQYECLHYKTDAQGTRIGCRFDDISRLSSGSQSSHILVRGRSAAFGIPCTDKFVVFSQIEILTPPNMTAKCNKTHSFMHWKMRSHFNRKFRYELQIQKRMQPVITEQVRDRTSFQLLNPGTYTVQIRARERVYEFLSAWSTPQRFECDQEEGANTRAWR

[2] = target: T2, human IL-3Rα extracellular domain V277A (human, UniProt P26951 19-305)
T2 sequence: T1 sequence with A41S, V259A

[3] = target: T3, human IL-3Rα extracellular domain N232T (human, UniProt P26951 19-305)
T3 sequence: T1 sequence with A41S, N214T

[4] = target: T4, human IL-3Rα extracellular domain P61A (human, UniProt P26951 19-305)
T4 sequence: T1 sequence with A41S, P43A

[5] = target: T5, wild type human IL-3Rα extracellular domain (human, UniProt P26951 19-305)
T5 construct: also called huIL-3Rα WT; WT
T5 sequence: T1 sequence with A41S

[6] = target: T6, human IL-3Rα extracellular domain V277I (human, UniProt P26951 19-305)
T6 sequence: T1 sequence with A41S, V259I

[7] = target: T7, human IL-3Rα extracellular domain N232A (human, UniProt P26951 19-305)
T7 sequence: T1 sequence with A41S, N214A

[8] = target: T8, human IL-3Rα extracellular domain V53A (human, UniProt P26951 19-305)
T8 sequence: T1 sequence with V35A, A41S

[9] = target: T9, human IL-3Rα extracellular domain E51Q (human, UniProt P26951 19-305)
T9 sequence: T1 sequence with E33Q, A41S

[10] = target: T10, human IL-3Rα extracellular domain E51A (human, UniProt P26951 19-305)
T10 sequence: T1 sequence with E33A, A41S

[11] = target: T11, human IL-3Rα extracellular domain Y278F (human, UniProt P26951 19-305)
T11 sequence: T1 sequence with A41S, Y260F

B1: human IL-3 (hIL-3) (ligand)
chain: APMTQTTPLKTSWVNCSNMIDEIITHLKQPPLPLLDFNNLNGEDQDILMENNLRRPNLEAFNRAVKSLQNASAIESILKNLLPCLPLATAAPTRHPIHIKDGDWNEFRRKLTFYLKTLENAQAQQTTLSLAIF
Q: What does the source list for B1?
A: Kd [1]: 262 nM; Kd [2]: 219 nM; Kd [3]: 358 nM; Kd [4]: 176 nM; Kd [5]: 125 nM; Kd [6]: 33 nM; Kd [7]: 2040 nM; Kd [8]: 588 nM; Kd [9]: 213 nM; Kd [10]: 207 nM; Kd [11]: 1860 nM
